Measurements as given in patent US10500249B2, “Compositions and methods for preventing or treating diseases, conditions, or processes characterized by aberrant fibroblast proliferation and extracellular matrix deposition” (MOERAE MATRIX, INC., priority 2014, dated 2019).

Assays:
Experiment in all cases: Kinase Profiling Assay
Format in all cases: biochemical
Conditions in all cases: 100 μM
CDK2/cyclinA (h) = target: T1, CDK2/cyclinA (h) (Homo sapiens, UniProt P24941)
T1 construct: purchased Millipore
Summary of the method: (§1)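 Specificity of MK2 inhibitory peptides is assessed against a panel of 266 human kinases. Kinase transfers a radiolabeled phosphate from ATP onto a positively charged substrate, which is trapped on a negatively charged filter and quantified by scintillation counting against full-activity control; duplicate determinations.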

Rsk3 (h) = Rsk3 (h) (Homo sapiens, UniProt Q15349)
Summary of the method: as §1

MSK1 (h) = target: T2, MSK1 (h) (Homo sapiens, UniProt O75582)
T2 construct: purchased Millipore
Summary of the method: as §1

EphA3 (h) = target: T3, EphA3 (h) (Homo sapiens, UniProt P29320)
T3 construct: purchased Millipore
T3 sequence (P29320 21-983): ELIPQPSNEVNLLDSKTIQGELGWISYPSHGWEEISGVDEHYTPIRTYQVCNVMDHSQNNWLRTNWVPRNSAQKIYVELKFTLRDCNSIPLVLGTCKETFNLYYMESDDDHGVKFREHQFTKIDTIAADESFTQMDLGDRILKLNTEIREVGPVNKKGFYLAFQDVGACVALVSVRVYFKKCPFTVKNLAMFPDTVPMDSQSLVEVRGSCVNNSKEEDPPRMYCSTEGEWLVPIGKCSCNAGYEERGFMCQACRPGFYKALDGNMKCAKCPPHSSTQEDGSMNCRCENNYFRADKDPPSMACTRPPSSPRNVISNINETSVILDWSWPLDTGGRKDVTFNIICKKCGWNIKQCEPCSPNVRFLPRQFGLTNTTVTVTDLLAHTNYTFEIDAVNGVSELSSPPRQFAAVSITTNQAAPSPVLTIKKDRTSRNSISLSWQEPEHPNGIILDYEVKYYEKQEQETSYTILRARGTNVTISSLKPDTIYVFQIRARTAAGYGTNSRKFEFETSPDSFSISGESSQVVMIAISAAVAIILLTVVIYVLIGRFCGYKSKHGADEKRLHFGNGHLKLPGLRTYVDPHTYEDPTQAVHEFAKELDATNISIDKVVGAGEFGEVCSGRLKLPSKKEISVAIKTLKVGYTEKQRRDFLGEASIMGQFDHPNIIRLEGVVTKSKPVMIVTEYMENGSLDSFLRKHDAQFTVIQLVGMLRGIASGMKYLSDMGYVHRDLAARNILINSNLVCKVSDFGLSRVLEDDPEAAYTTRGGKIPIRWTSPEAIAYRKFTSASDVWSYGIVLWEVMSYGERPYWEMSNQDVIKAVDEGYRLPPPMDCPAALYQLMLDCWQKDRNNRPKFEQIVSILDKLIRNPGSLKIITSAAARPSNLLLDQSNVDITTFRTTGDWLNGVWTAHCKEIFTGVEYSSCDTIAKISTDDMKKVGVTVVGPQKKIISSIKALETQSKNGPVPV
Summary of the method: as §1

PDK1 (h) = target: T4, PDK1 (h) (Homo sapiens, UniProt O15530)
T4 construct: purchased Millipore
T4 sequence (O15530 1-556): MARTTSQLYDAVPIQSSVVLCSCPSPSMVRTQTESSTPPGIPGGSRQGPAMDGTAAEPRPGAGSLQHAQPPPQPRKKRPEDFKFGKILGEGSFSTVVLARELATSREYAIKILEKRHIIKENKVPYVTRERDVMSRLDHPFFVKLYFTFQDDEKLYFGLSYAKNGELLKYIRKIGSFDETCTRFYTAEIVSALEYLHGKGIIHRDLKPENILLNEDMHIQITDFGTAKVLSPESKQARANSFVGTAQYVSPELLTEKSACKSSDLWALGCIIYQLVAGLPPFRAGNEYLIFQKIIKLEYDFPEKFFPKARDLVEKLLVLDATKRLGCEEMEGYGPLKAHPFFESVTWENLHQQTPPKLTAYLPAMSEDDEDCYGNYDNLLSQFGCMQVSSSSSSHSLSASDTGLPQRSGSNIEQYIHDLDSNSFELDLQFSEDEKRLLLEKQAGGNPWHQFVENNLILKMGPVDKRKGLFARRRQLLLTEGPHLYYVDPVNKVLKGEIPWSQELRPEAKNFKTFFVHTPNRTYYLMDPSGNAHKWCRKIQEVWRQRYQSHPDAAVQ
Summary of the method: as §1

JNK3 (h) = JNK3 (h) (Homo sapiens, UniProt P53779)
Summary of the method: as §1

PDGFRα (V561D) (h) = target: T5, PDGFRα (V561D) (h) (Homo sapiens, UniProt P16234, V561D)
T5 construct: purchased Millipore
Summary of the method: as §1

TAO3 (h) = target: T6, TAO3 (h) (Homo sapiens, UniProt Q9H2K8)
T6 sequence (Q9H2K8 1-898): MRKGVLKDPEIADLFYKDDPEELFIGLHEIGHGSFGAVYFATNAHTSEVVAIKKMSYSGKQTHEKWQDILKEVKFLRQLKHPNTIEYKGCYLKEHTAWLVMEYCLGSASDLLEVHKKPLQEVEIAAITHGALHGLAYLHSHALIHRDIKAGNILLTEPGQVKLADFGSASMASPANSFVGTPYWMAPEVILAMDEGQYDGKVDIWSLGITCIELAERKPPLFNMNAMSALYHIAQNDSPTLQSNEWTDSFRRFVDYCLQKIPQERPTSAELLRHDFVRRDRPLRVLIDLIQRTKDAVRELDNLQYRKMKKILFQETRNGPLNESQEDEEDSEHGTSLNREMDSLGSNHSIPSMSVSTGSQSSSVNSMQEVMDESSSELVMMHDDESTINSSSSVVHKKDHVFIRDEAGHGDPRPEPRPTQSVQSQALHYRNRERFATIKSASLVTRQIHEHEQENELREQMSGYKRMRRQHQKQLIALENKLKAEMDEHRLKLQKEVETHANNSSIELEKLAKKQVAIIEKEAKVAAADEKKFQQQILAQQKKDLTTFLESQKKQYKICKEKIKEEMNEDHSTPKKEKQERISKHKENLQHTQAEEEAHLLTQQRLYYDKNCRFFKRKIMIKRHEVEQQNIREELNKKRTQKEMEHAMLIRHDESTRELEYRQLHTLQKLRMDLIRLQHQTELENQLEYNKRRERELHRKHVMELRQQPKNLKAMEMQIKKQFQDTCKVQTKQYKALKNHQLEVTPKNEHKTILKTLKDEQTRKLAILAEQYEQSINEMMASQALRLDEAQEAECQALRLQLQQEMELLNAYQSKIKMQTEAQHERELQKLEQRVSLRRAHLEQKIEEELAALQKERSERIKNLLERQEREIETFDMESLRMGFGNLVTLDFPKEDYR
Summary of the method: as §1

T5 sequence (P16234 24-1089 V561D): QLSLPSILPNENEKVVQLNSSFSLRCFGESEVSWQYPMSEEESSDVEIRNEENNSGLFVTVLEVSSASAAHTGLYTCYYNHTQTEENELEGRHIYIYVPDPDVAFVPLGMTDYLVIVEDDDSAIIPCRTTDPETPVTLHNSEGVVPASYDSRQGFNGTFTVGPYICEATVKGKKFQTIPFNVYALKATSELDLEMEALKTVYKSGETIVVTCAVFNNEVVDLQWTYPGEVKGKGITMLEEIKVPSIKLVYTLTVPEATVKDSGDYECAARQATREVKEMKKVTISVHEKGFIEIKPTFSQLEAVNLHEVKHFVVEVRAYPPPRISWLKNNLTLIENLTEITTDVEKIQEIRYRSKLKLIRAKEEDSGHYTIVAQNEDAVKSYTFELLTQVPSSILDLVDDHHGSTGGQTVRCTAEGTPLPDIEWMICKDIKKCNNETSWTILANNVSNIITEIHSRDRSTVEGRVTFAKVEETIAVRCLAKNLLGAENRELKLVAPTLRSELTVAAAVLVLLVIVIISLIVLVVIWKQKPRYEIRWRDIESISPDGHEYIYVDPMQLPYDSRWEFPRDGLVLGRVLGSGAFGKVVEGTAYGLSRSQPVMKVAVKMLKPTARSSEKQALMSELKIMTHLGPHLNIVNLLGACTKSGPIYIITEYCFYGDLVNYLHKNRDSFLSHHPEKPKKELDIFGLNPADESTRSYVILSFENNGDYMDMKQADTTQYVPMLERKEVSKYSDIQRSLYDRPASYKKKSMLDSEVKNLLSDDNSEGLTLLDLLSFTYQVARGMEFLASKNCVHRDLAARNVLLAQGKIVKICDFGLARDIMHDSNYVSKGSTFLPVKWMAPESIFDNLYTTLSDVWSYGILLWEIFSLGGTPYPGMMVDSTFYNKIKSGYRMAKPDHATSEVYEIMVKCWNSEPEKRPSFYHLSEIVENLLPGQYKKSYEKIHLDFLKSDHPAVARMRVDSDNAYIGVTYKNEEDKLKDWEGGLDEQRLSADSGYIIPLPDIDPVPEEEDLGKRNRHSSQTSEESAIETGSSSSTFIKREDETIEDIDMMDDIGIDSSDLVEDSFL
Chain of Rsk3 (h) (Q15349 whole entry): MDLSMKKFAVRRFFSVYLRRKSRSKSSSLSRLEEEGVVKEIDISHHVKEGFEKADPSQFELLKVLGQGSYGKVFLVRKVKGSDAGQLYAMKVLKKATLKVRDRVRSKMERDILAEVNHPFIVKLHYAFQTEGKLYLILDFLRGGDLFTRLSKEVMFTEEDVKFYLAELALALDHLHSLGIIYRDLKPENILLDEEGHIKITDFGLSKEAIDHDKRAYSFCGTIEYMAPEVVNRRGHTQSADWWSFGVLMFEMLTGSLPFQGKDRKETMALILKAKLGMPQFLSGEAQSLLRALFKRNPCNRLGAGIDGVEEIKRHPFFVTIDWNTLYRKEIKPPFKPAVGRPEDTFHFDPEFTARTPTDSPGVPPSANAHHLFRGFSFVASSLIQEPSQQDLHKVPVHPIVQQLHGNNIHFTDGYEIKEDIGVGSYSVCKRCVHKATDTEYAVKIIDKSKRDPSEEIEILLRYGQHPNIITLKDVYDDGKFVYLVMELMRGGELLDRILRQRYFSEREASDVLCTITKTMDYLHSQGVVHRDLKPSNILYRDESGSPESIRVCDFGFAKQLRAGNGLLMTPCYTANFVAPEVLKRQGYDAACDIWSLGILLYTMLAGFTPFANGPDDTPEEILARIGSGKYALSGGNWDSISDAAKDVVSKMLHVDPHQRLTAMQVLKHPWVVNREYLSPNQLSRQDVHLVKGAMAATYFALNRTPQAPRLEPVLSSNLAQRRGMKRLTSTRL
Chain of JNK3 (h) (P53779 whole entry): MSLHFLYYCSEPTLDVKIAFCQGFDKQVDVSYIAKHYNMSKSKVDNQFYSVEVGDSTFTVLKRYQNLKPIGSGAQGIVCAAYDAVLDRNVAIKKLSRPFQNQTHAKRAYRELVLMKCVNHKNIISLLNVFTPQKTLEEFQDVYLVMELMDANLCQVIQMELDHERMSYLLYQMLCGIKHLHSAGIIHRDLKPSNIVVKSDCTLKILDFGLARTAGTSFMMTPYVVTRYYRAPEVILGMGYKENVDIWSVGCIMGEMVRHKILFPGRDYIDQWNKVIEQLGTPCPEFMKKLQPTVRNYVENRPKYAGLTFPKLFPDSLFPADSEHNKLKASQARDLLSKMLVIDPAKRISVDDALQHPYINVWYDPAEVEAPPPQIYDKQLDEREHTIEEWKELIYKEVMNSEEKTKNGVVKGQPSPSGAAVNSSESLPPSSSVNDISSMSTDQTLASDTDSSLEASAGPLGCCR
T2 sequence (O75582 whole entry): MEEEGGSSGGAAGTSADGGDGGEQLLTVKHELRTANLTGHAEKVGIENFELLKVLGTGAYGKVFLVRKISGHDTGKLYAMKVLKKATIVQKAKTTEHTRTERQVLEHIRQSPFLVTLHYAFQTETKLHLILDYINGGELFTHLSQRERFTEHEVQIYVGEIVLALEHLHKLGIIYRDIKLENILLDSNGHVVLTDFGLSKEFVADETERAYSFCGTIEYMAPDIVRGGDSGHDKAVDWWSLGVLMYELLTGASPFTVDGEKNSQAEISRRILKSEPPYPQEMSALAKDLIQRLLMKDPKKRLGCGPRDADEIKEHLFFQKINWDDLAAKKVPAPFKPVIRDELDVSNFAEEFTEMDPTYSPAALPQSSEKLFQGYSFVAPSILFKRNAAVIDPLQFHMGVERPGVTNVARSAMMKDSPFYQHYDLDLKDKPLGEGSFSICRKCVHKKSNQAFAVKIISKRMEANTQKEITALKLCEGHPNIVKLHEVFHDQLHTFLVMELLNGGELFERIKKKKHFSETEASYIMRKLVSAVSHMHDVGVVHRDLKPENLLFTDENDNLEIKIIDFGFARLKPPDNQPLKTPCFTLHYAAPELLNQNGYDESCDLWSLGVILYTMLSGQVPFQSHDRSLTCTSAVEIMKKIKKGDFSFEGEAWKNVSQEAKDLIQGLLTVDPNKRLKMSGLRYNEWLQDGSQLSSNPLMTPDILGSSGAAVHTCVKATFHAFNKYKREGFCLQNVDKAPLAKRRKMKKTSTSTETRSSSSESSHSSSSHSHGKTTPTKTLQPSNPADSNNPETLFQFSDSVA

Sequence | % activity (CDK2/cyclinA (h)) [%] | % activity (Rsk3 (h)) [%] | % activity (MSK1 (h)) [%] | % activity (EphA3 (h)) [%] | % activity (PDK1 (h)) [%] | % activity (JNK3 (h)) [%] | % activity (PDGFRα (V561D) (h)) [%] | % activity (TAO3 (h)) [%]
FAKLAARLYRKALARQLGVAA [MMI-0300] | 86 | 76 | 32 | 6 | 135 | 89 | 82 | 77
HRRIKAWLKKIKALARQLGVAA (Mammalian) [MMI-0500] | 87 | 23 | 8 | 33 | 178 | 171 | 146 | 12
KAFAKLAARLYRKALARQLGVAA [MMI-0400] | 92 | 71 | 28 | 12 | 159 | 70 | 100 | 67
YARAAARQARAKALNRQLGVA (Mammalian) [MMI-0200] |  |  | 50 |  | 143 | 90 |  | 
